The Immune Epitope Database (IEDB)
pKd: −log10 of the molar value.

How the values were obtained:
HLA-A*02:01 [1] = experiment: IEDB peptide-MHC binding, purified MHC/competitive/fluorescence; filed as Kd, often an IC50 or EC50 that approximates it; ≥ and ≤ were set here for values at or beyond the usual limits of such assays; conditions: source organism: Human immunodeficiency virus 1
HLA-A*02:03 = experiment: as above
HLA-A*02:06 = experiment: as above; conditions: source organism: Human immunodeficiency virus 1
HLA-A*02:11 = experiment: as above
HLA-A*02:19 = experiment: as above
HLA-A*69:01 [2] = experiment: as above; conditions: source organism: Human immunodeficiency virus 1
HLA-A*01:01 = experiment: IEDB peptide-MHC binding, purified MHC/direct/fluorescence; filed as Kd, often an IC50 or EC50 that approximates it; ≥ and ≤ were set here for values at or beyond the usual limits of such assays
HLA-A*02:01 [3] = experiment: as above
HLA-A*03:01 [4] = experiment: as above
HLA-A*31:01 = experiment: as above
HLA-A*69:01 [5] = experiment: as above
HLA-B*15:01 [6] = experiment: as above
HLA-B*15:09 = experiment: as above
HLA-B*15:17 [7] = experiment: as above; conditions: source organism: Camelpox virus CMS
HLA-B*27:05 = experiment: as above
HLA-B*39:01 [8] = experiment: as above; conditions: source organism: Variola virus
HLA-B*40:01 = experiment: as above
HLA-B*46:01 [9] = experiment: as above
HLA-B*48:01 = experiment: as above
HLA-B*57:01 [10] = experiment: as above
HLA-B*58:01 = experiment: as above
HLA-A*11:01 [11] = experiment: IEDB peptide-MHC binding, purified MHC/competitive/fluorescence; filed as Kd, often an IC50 or EC50 that approximates it; ≥ and ≤ were set here for values at or beyond the usual limits of such assays
HLA-A*11:01 [12] = experiment: IEDB peptide-MHC binding, purified MHC/direct/fluorescence; filed as Kd, often an IC50 or EC50 that approximates it; ≥ and ≤ were set here for values at or beyond the usual limits of such assays; conditions: source organism: Yellow fever virus
HLA-A*29:02 = experiment: as above; conditions: source organism: Yellow fever virus
HLA-B*07:02 = experiment: as above
HLA-B*18:01 [13] = experiment: as above; conditions: source organism: Yellow fever virus
HLA-B*44:02 = experiment: as above; conditions: source organism: Yellow fever virus
HLA-C*15:02 = experiment: as above
HLA-A*26:03 = experiment: as above; conditions: source organism: Listeria monocytogenes serotype 4b str. H7858
HLA-A*24:02 = experiment: IEDB peptide-MHC binding, purified MHC/competitive/fluorescence; filed as Kd, often an IC50 or EC50 that approximates it; ≥ and ≤ were set here for values at or beyond the usual limits of such assays; conditions: source organism: Escherichia coli B7A
HLA-A*02:12 = experiment: as above; conditions: source organism: Yersinia pestis Nepal516
HLA-A*03:01 [14] = experiment: as above; conditions: source organism: Yersinia pestis Nepal516
HLA-A*26:01 = experiment: as above; conditions: source organism: Yersinia pestis Nepal516
HLA-B*15:01 [15] = experiment: as above; conditions: source organism: Yersinia pestis Nepal516
HLA-B*18:01 [16] = experiment: as above
HLA-B*27:03 = experiment: as above; conditions: source organism: Yersinia pestis Nepal516
HLA-B*39:01 [17] = experiment: as above; conditions: source organism: Yersinia pestis Nepal516
HLA-B*46:01 [18] = experiment: as above; conditions: source organism: Yersinia pestis Nepal516
HLA-B*51:01 = experiment: as above; conditions: source organism: Yersinia pestis Nepal516
HLA-B*57:01 [19] = experiment: as above; conditions: source organism: Yersinia pestis Nepal516
HLA-A*24:03 = experiment: IEDB peptide-MHC binding, purified MHC/direct/fluorescence; filed as Kd, often an IC50 or EC50 that approximates it; ≥ and ≤ were set here for values at or beyond the usual limits of such assays; conditions: source organism: Camelpox virus M-96
HLA-B*08:01 = experiment: as above; conditions: source organism: Variola virus
HLA-B*08:02 = experiment: as above; conditions: source organism: Variola virus
HLA-A*26:02 = experiment: IEDB peptide-MHC binding, purified MHC/competitive/fluorescence; filed as Kd, often an IC50 or EC50 that approximates it; ≥ and ≤ were set here for values at or beyond the usual limits of such assays; conditions: source organism: Taterapox virus
HLA-A*68:02 = experiment: as above; conditions: source organism: Taterapox virus
HLA-B*15:17 [20] = experiment: as above; conditions: source organism: Taterapox virus
[21] = source organism: Human immunodeficiency virus 1
[22] = source organism: Camelpox virus CMS
[23] = source organism: Yellow fever virus
[24] = source organism: Yersinia pestis Nepal516
[25] = source organism: Giardia lamblia ATCC 50803
[26] = source organism: Camelpox virus M-96
[27] = source organism: Taterapox virus

With NTVATLYCV the pKd (HLA-A*02:01 [1]) was 6.67, the pKd (HLA-A*02:03; [21]) was 7.87 and the pKd (HLA-A*02:06) was ≥ 10.00. For the same sequence, the pKd (HLA-A*02:11; [21]) was 9.15, the pKd (HLA-A*02:19; [21]) was 7.97 and the pKd (HLA-A*69:01 [2]) was ≥ 9.00.

For VSEKYTDMY, the pKd (HLA-A*01:01; [22]) was 8.48, the pKd (HLA-A*02:01 [3]; [22]) was ≤ 4.70 and the pKd (HLA-A*03:01 [4]; [22]) was ≤ 4.70. For the same sequence, the pKd (HLA-A*31:01; [22]) was ≤ 4.70, the pKd (HLA-A*69:01 [5]; [22]) was ≤ 4.70 and the pKd (HLA-B*15:01 [6]; [22]) was ≤ 4.70. For the same sequence, the pKd (HLA-B*15:09; source organism: Variola virus) was ≤ 4.70, the pKd (HLA-B*15:17 [7]) was 6.90 and the pKd (HLA-B*27:05; [22]) was ≤ 4.70. The pKd (HLA-B*39:01 [8]) was ≤ 4.70, the pKd (HLA-B*40:01; [22]) was ≤ 4.70 and the pKd (HLA-B*46:01 [9]; [22]) was ≤ 4.70. The pKd (HLA-B*48:01; [22]) was ≤ 4.70, the pKd (HLA-B*57:01 [10]; [22]) was ≤ 4.70 and the pKd (HLA-B*58:01; [22]) was ≤ 4.70. The pKd (HLA-A*11:01 [11]; source organism: Vaccinia virus) was ≤ 4.70.

FHERGYVKL was tested, and the pKd (HLA-A*01:01; [23]) was ≤ 4.70, the pKd (HLA-A*02:01 [3]; [23]) was ≤ 4.70 and the pKd (HLA-A*03:01 [4]; [23]) was ≤ 4.70. The pKd (HLA-A*11:01 [12]) was ≤ 4.70, the pKd (HLA-A*29:02) was ≤ 4.70 and the pKd (HLA-A*31:01; [23]) was ≤ 4.70. For the same sequence, the pKd (HLA-A*69:01 [5]; [23]) was ≤ 4.70, the pKd (HLA-B*07:02; [23]) was ≤ 4.70 and the pKd (HLA-B*15:01 [6]; [23]) was ≤ 4.70. For the same sequence, the pKd (HLA-B*15:09; [23]) was 7.15, the pKd (HLA-B*18:01 [13]) was ≤ 4.70 and the pKd (HLA-B*27:05; [23]) was ≤ 4.70. The pKd (HLA-B*40:01; [23]) was ≤ 4.70, the pKd (HLA-B*44:02) was ≤ 4.70 and the pKd (HLA-B*46:01 [9]; [23]) was ≤ 4.70. The pKd (HLA-B*48:01; [23]) was ≤ 4.70, the pKd (HLA-B*57:01 [10]; [23]) was ≤ 4.70 and the pKd (HLA-B*58:01; [23]) was ≤ 4.70.

With VSTAIAALF the pKd (HLA-B*58:01; source organism: Mycobacterium tuberculosis) was 7.55 and the pKd (HLA-C*15:02; source organism: Mycobacterium tuberculosis H37Ra) was 6.35.

Work on FTYAPAGMY yielded a pKd (HLA-A*26:03) of 6.94.

In the case of ITPTIYLLL, the pKd (HLA-C*15:02; source organism: Escherichia coli B7A) was 6.40 and the pKd (HLA-A*24:02) was 9.15.

With SMLCWLGMT the pKd (HLA-A*02:03; [24]) was ≤ 4.70, the pKd (HLA-A*02:11; [24]) was 7.29 and the pKd (HLA-A*02:12) was 6.24. The pKd (HLA-A*02:19; [24]) was ≤ 4.70, the pKd (HLA-A*03:01 [14]) was ≤ 4.70 and the pKd (HLA-A*26:01) was ≤ 4.70. For the same sequence, the pKd (HLA-B*15:01 [15]) was ≤ 4.70, the pKd (HLA-B*18:01 [16]; [24]) was ≤ 4.70 and the pKd (HLA-B*27:03) was ≤ 4.70. For the same sequence, the pKd (HLA-B*39:01 [17]) was ≤ 4.70, the pKd (HLA-B*46:01 [18]) was ≤ 4.70 and the pKd (HLA-B*51:01) was ≤ 4.70. For the same sequence, the pKd (HLA-B*57:01 [19]) was ≤ 4.70.

In the case of RAIREYFQF, the pKd (HLA-B*57:01 [10]; [25]) was 7.32, the pKd (HLA-B*58:01; [25]) was 8.30 and the pKd (HLA-C*15:02; [25]) was 5.67.

SYVFNFHKY was tested, and the pKd (HLA-A*01:01; [26]) was ≤ 4.70, the pKd (HLA-A*02:01 [3]; [26]) was ≤ 4.70 and the pKd (HLA-A*24:03) was 7.26. For the same sequence, the pKd (HLA-A*31:01; [26]) was ≤ 4.70, the pKd (HLA-A*69:01 [5]; [26]) was ≤ 4.70 and the pKd (HLA-B*07:02; [26]) was ≤ 4.70. For the same sequence, the pKd (HLA-B*08:01) was ≤ 4.70, the pKd (HLA-B*08:02) was ≤ 4.70 and the pKd (HLA-B*15:01 [6]; [26]) was ≤ 4.70. For the same sequence, the pKd (HLA-B*57:01 [10]; [26]) was ≤ 4.70, the pKd (HLA-B*58:01; [26]) was ≤ 4.70 and the pKd (HLA-A*11:01 [11]; [27]) was 5.59. The pKd (HLA-A*26:02) was 5.39, the pKd (HLA-A*68:02) was ≤ 4.70 and the pKd (HLA-B*15:17 [20]) was ≤ 4.70. For the same sequence, the pKd (HLA-B*18:01 [16]; [27]) was ≤ 4.70.
